Data from article PMC2650008.

Biological target: T1, PpPutA45 (Pseudomonas putida, UniProt Q9R9T7 1-45)
T1 chain: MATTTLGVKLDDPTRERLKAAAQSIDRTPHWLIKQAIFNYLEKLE
Test: EMSA

B1: O2-12 (dsDNA)
DNA 1: GCGGTTGCACCT
DNA 2: AGGTGCAACCGC
Question: Does B1 bind?
Answer: no binding
